Measured values reported in doi:10.1101/2021.10.20.465058 (bioRxiv, 2021).

What was measured:
cryo-EM structure [1] = biological target: the molecule itself; test: cryo-EM structure
native gel or EMSA = biological target: the molecule itself; test: native gel or EMSA
cryo-EM structure [2] = biological target: the molecule itself; test: cryo-EM structure; remark: listed apart in the source
[3] = biological target: the molecule itself; test: single-particle cryo-EM, 2D class averages only

B1: TqsA (transporter of quorum-sensing signal AI-2) from E. coli (natural protein, Escherichia coli K-12, UniProt P0AFS5 1-344, looked up)
chain: MAKPIITLNGLKIVIMLGMLVIILCGIRFAAEIIVPFILALFIAVILNPLVQHMVRWRVPRVLAVSILMTIIVMAMVLLLAYLGSALNELTRTLPQYRNSIMTPLQALEPLLQRVGIDVSVDQLAHYIDPNAAMTLLTNLLTQLSNAMSSIFLLLLTVLFMLLEVPQLPGKFQQMMARPVEGMAAIQRAIDSVSHYLVLKTAISIITGLVAWAMLAALDVRFAFVWGLLAFALNYIPNIGSVLAAIPPIAQVLVFNGFYEALLVLAGYLLINLVFGNILEPRIMGRGLGLSTLVVFLSLIFWGWLLGPVGMLLSVPLTIIVKIALEQTAGGQSIAVLLSDLNKE
stoichiometry N (cryo-EM structure [1]): 5

B2: PerM, AI-2 exporter from E. coli (natural protein, Escherichia coli K-12, UniProt P0AFI9 1-353, looked up)
chain: MLEMLMQWYRRRFSDPEAIALLVILVAGFGIIFFFSGLLAPLLVAIVLAYLLEWPTVRLQSIGCSRRWATSIVLVVFVGILLLMAFVVLPIAWQQGIYLIRDMPGMLNKLSDFAATLPRRYPALMDAGIIDAMAENMRSRMLTMGDSVVKISLASLVGLLTIAVYLVLVPLMVFFLLKDKEQMLNAVRRVLPRNRGLAGQVWKEMNQQITNYIRGKVLEMIVVGIATWLGFLLFGLNYSLLLAVLVGFSVLIPYIGAFVVTIPVVGVALFQFGAGTEFWSCFAVYLIIQALDGNLLVPVLFSEAVNLHPLVIILSVVIFGGLWGFWGVFFAIPLATLIKAVIHAWPDGQIAQE
stoichiometry N (native gel or EMSA): 2

B3: Aq_740, AI-2 exporter from Aquifex aeolicus (natural protein, UniProt O66948 1-353, looked up)
chain: MNKLSLFVYLFFFLSFLFLFLYLLQPFFNPIVWAIVFGIVLYPLYGFIKRKLKSENLAAFLVIFIVLVAIVIPFTIFAVITAQQIIVFSIKVVNFVQTHSVNDLINSLKEIPFLKEKRESLEPLLNYLQSEEFRRALINALNSILTFVGDRLRSYVYTAGTSLFHVFVFLLTLFFILRDGEKVLKEIINSIPMKREDLEEILKTIYRTVLAVIYGTVGTAVAQSIMGFIGYSLAGVEFALIWALITFFAAFVPPFGAAFVWVPMDIYLFTTKGIKEGLILLFFGTFLISTMDNIVRPLVMKQGIKLPYVALFFSTIGGLIKFGFIGVFLGPIILSTMLASVKIYRRRVIHSGI
stoichiometry N (cryo-EM structure [2]): 5

B4: YdiK, AI-2 exporter from E. coli (natural protein, Escherichia coli K-12, UniProt P0AFS7 1-370, looked up)
chain: MVNVRQPRDVAQILLSVLFLAIMIVACLWIVQPFILGFAWAGTVVIATWPVLLRLQKIMFGRRSLAVLVMTLLLVMVFIIPIALLVNSIVDGSGPLIKAISSGDMTLPDLAWLNTIPVIGAKLYAGWHNLLDMGGTAIMAKVRPYIGTTTTWFVGQAAHIGRFMVHCALMLLFSALLYWRGEQVAQGIRHFATRLAGVRGDAAVLLAAQAIRAVALGVVVTALVQAVLGGIGLAVSGVPYATLLTVLMILSCLVQLGPLPVLIPAIIWLYWTGDTTWGTVLLVWSGVVGTLDNVIRPMLIRMGADLPLILILSGVIGGLIAFGMIGLFIGPVLLAVSWRLFAAWVEEVPPPTDQPEEILEELGEIEKPNK
stoichiometry N (cryo-EM structure [1]): 5

B5: YhhT, AI-2 exporter from E. coli (natural protein, Escherichia coli K-12, UniProt P0AGM0 1-349, looked up)
chain: METPQPDKTGMHILLKLASLVVILAGIHAAADIIVQLLLALFFAIVLNPLVTWFIRRGVQRPVAITIVVVVMLIALTALVGVLAASFNEFISMLPKFNKELTRKLFKLQEMLPFLNLHMSPERMLQRMDSEKVVTFTTALMTGLSGAMASVLLLVMTVVFMLFEVRHVPYKMRFALNNPQIHIAGLHRALKGVSHYLALKTLLSLWTGVIVWLGLELMGVQFALMWAVLAFLLNYVPNIGAVISAVPPMIQVLLFNGVYECILVGALFLVVHMVIGNILEPRMMGHRLGMSTMVVFLSLLIWGWLLGPVGMLLSVPLTSVCKIWMETTKGGSKLAILLGPGRPKSRLPG
stoichiometry N [3]: 5
